Here are results for 20 molecules from patent publication US20160031986A1.

Assay [1] addresses cynomolgus monkey DLL4 extracellular domain (cynomolgus monkey). The assay can be described thus: binding ELISA. For orientation: An ELISA detects its analyte on a solid surface through an enzyme-linked reagent.
For assay [2] the target is unchanged. The assay can be described thus: Biacore SPR.
The target is the same in assay [3]. The assay can be described thus: Biacore SPR; head says nM, kd/ka gives M. On the technique in general: SPR reads the build-up and loss of mass on a sensor chip optically.

B1: 1A11 chimeric antibody (antibody, V domains shown)
VH: EVQLVESGGGLVQPGRSMKLSCAASGFTFRNFPMAWVRQAPTRGLEWVATISSSDGTTYYRDSVKGRFTISRDNAKSTLYLQVNSLRSEDTATYYCSRGYYNSPFAYWGQGTLVTVSS
VL: DIQMTQSPASLSASLGETVTIECRASEDIYSNLAWYQQKPGNSPQLLIFDTNNLADGVPSRFSGSGSGTQSSLKINSLQSEDVASYFCQQYNNYPPTFGGGTKLELKR
Take B1: the EC50 (in general, the concentration needed to bring the measured effect to its halfway point) in assay [1] turned out to be 0.33 nM.

B2: h1A11.9 (antibody, V domains shown)
VH: EVQLVESGGGLVQPGGSLRLSCAASGFTFSNFPMAWVRQAPGKGLEWVATISSSDGTTYYRDSVKGRFTISRDNAKNSLYLQMNSLRAEDTAVYYCSRGYYNSPFAYWGQGTLVTVSS
VL: DIQMTQSPSSLSASVGDRVTITCRASEDIYSNLAWYQQKPGKAPKLLIYDTNNLADGVPSRFSGSGSGTDFTLTISSLQPEDFATYYCQQYNNYPPTFGQGTKLEIKR
Molecule B2 had an EC50 in assay [1] of 0.15 nM.

B3: h1A11.11 (antibody, V domains shown)
VH: EVQLVESGGGLVQPGGSLRLSCAASGFTFSNFPMAWVRQAPGKGLEWVATISSSDGTTYYRDSVKGRFTISRDNAKNSLYLQMNSLRAEDTAVYYCSRGYYNSPFAYWGQGTLVTVSS
VL: DIQMTQSPSSLSASVGDRVTITCRASEDIYSNLAWYQQKPGKAPKLLIFDTNNLADGVPSRFSGSGSGTDFTLTISSLQPEDFATYYCQQYNNYPPTFGQGTKLEIKR
In the case of B3, in assay [1], the half-maximal effective concentration (EC50) is 0.15 nM.

B4: h1A11.B4 (antibody, V domains shown)
VH: EVQLVESGGGLVQPGGSLRLSCAASGFTFSNFPMAWVRQAPGKGLEWVATISSSDGTTYYRDSVKGRFTISRDNAKNSLYLQMNSLRAEDTAVYYCARGYYNSPFAYWGQGTLVTVSS
VL: DIQMTQSPSSLSASVGDRVTITCRASQDIYYNLAWYQQKPGKAPKLLIFDTNILADGVPSRFSGSGSGTDFTLTISSLQPEDFATYFCQQYDYVPPTFGQGTKLEIK
On to B4, for which, in assay [2], the off-rate constant (koff) (usually a measure of how fast the partners let go of each other) was 0.00099 s⁻¹ and the kon (usually a measure of how fast the partners come together) is 143000 M⁻¹ s⁻¹. Also, the dissociation constant (Kd) (in general, the concentration at which binding is half-saturated) in assay [3] was determined as 6.9 nM.

B5: h1A11.10 (antibody, V domains shown)
VH: EVQLVESGGGLVQPGGSLRLSCAASGFTFSNFPMAWVRQAPGKGLEWVATISSSDGTTYYRDSVKGRFTISRDNAKNSLYLQMNSLRAEDTAVYYCSRGYYNSPFAYWGQGTLVTVSS
VL: DIQMTQSPSSLSASVGDRVTITCRASEDIYSNLAWYQQKPGKSPKLLIFDTNNLADGVPSRFSGSGSGTDSTLTISSLQPEDFATYFCQQYNNYPPTFGQGTKLEIKR
B5 yielded an EC50 in assay [1] of 0.15 nM.

B6: h1A11.12 (antibody, V domains shown)
VH: EVQLVESGGGLVQPGGSLRLSCAASGFTFSNFPMAWVRQAPGKGLEWVATISSSDGTTYYRDSVKGRFTISRDNAKNSLYLQMNSLRAEDTAVYYCSRGYYNSPFAYWGQGTLVTVSS
VL: EIVMTQSPATLSVSPGERATLSCRASEDIYSNLAWYQQKPGQSPRLLIFDTNNLADGVPARFSGSGSGTESTLTISSLQSEDFAVYFCQQYNNYPPTFGQGTKLEIKR
B6 returned a concentration for a half-maximal effect (EC50) in assay [1] of 0.16 nM.

B7: h1A11.F5 (antibody, V domains shown)
VH: EVQLVESGGGLVQPGGSLRLSCAASGFTFRHFPMAWVRQAPGKGLEWVATISSSDAWPSYRDSVKGRFTISRDNAKNSLYLQMNSLRAEDTAVYYCARGYYNSPFAYWGQGTLVTVSS
VL: DIQMTQSPSSLSASVGDRVTITCRASQEIYRNLAWYQQKPGKSPKLLIFDTSVLADGVPSRFSGSGSGTDSTLTISSLQPEDFATYYCQQYTYYPPTFGQGTKLEIK
In assay [2], B7 yielded an off-rate (koff) of 2e-05 s⁻¹ and a kon of 118000 M⁻¹ s⁻¹. The molecule further gave an equilibrium dissociation constant (Kd) in assay [3] of 0.17 nM.

B8: h1A11.A2 (antibody, V domains shown)
VH: EVQLVESGGGLVQPGGSLRLSCAASGFTFSNFPMAWVRQAPGKGLEWVATISSSDGTTYYRDSVKGRFTISRDNAKNSLYLQMNSLRAEDTAVYYCARGYYNSPFAYWGQGTLVTVSS
VL: DIQMTQSPSSLSASVGDRVTITCRASQDIYINLAWYQQKPGKSPKLLIFDTNDLADGVPSRFSGSGSGTDFTLTISSLQPEDFATYYCQQYDYVPPTFGQGTKLEIK
As to B8, in assay [2], the koff was 0.000527 s⁻¹ and the kon was 134000 M⁻¹ s⁻¹. Moreover, the Kd in assay [3] was 3.9 nM.

B9: h1A11.B5 (antibody, V domains shown)
VH: EVQLVESGGGLVQPGGSLRLSCAASGFTFRYFPMSWVRQAPGKGLEWVASISGSDGWASYRDSVKGRFTISRDNAKNSLYLQMNSLRAEDTAVYYCARGYYNSPFASWGQGTLVTVSS
VL: DIQMTQSPSSLSASVGDRVTITCRASQDIWNNLAWYQQKPGKSPKLLIFDTSYLADGVPSRFSGSGSGTDFTLTISSLQPEDFATYYCQQYDWYPPTFGQGTKLEIK
For B9, in assay [2], the koff amounted to 0.000178 s⁻¹ and the on-rate constant (kon) worked out at 117000 M⁻¹ s⁻¹. This molecule came in with a dissociation constant Kd in assay [3] of 1.5 nM.

B10: h1A11.16 (antibody, V domains shown)
VH: EVQLVESGGGLVQPGGSLRLSCAASGFTFSNFPMAWVRQAPGKGLEWVATISSSDGTTYYRDSVKGRFTISRDNSKSTLYLQMNSLRAEDTAVYYCSRGYYNSPFAYWGQGTLVTVSS
VL: EIVMTQSPATLSVSPGERATLSCRASEDIYSNLAWYQQKPGQSPRLLIFDTNNLADGVPARFSGSGSGTESTLTISSLQSEDFAVYFCQQYNNYPPTFGQGTKLEIKR
In turn, B10 returned an EC50 in assay [1] of 0.12 nM.

B11: h1A11.G3 (antibody, V domains shown)
VH: EVQLVESGGGLVQPGGSLRLSCAASGFTFRYFPMSWVRQAPGKGLEWVASISGSDGWASYRDSVKGRFTISRDNAKNSLYLQMNSLRAEDTAVYYCARGYYNSPFAYWGQGTLVTVSS
VL: DIQMTQSPSSLSASVGDRVTITCRASQEIYRNLAWYQQKPGKSPKLLIFDTSVLADGVPSRFSGSGSGTDSTLTISSLQPEDFATYYCQQYTYYPPTFGQGTKLEIK
B11: in assay [2], the koff came out at 1.73e-05 s⁻¹ and the kon was 99000 M⁻¹ s⁻¹. Besides, the equilibrium dissociation constant (Kd) in assay [3] amounted to 0.17 nM.

B12: h1A11.E12 (antibody, V domains shown)
VH: EVQLVESGGGLVQPGGSLRLSCAASGFTFRYFPMAWVRQAPGKGLEWVATISGSDEWPNYRDSVKGRFTISRDNAKNSLYLQMNSLRAEDTAVYYCARGYYNSPFAFWGQGTLVTVSS
VL: DIQMTQSPSSLSASVGDRVTITCRASQEIYRNLAWYQQKPGKSPKLLIFDTSVLADGVPSRFSGSGSGTDSTLTISSLQPEDFATYYCQQYTYYPPTFGQGTKLEIK
In assay [2], B12 returned an off-rate constant (koff) of 3.84e-05 s⁻¹ and a kon of 137000 M⁻¹ s⁻¹. In addition, the equilibrium dissociation constant (Kd) in assay [3] turned out to be 0.28 nM.

B13: h1A11.13 (antibody, V domains shown)
VH: EVQLVESGGGLVQPGGSLRLSCAASGFTFSNFPMAWVRQAPGKGLEWVATISSSDGTTYYRDSVKGRFTISRDNSKSTLYLQMNSLRAEDTAVYYCSRGYYNSPFAYWGQGTLVTVSS
VL: DIQMTQSPSSLSASVGDRVTITCRASEDIYSNLAWYQQKPGKAPKLLIYDTNNLADGVPSRFSGSGSGTDFTLTISSLQPEDFATYYCQQYNNYPPTFGQGTKLEIKR
In assay [1], B13 showed a concentration for a half-maximal effect (EC50) of 0.16 nM.

B14: h1A11.C6 (antibody, V domains shown)
VH: EVQLVESGGGLVQPGGSLRLSCAASGFTFRNFPMAWVRQAPGKGLEWVATISSSDGWPTYRDSVKGRFTISRDNAKSSLYLQMNSLRAEDTAVYYCSRGYYNSPFAYWGQGTLVTVSS
VL: DIQMTQSPSSLSASVGDRVTITCRASEDIYSNLAWYQQKPGKAPKLLIYDTNNLADGVPSRFSGSGSGTDFTLTISSLQPEDFATYYCQQYNNYPPTFGQGTKLEIK
In assay [2], B14 came in with a koff of 3.12e-05 s⁻¹ and a kon of 171000 M⁻¹ s⁻¹. The molecule also returned a dissociation constant (Kd) in assay [3] of 0.18 nM.

B15: h1A11.14 (antibody, V domains shown)
VH: EVQLVESGGGLVQPGGSLRLSCAASGFTFSNFPMAWVRQAPGKGLEWVATISSSDGTTYYRDSVKGRFTISRDNSKSTLYLQMNSLRAEDTAVYYCSRGYYNSPFAYWGQGTLVTVSS
VL: DIQMTQSPSSLSASVGDRVTITCRASEDIYSNLAWYQQKPGKSPKLLIFDTNNLADGVPSRFSGSGSGTDSTLTISSLQPEDFATYFCQQYNNYPPTFGQGTKLEIKR
In turn, B15 gave a half-maximal effective concentration (EC50) in assay [1] of 0.14 nM.

B16: h1A11.15 (antibody, V domains shown)
VH: EVQLVESGGGLVQPGGSLRLSCAASGFTFSNFPMAWVRQAPGKGLEWVATISSSDGTTYYRDSVKGRFTISRDNSKSTLYLQMNSLRAEDTAVYYCSRGYYNSPFAYWGQGTLVTVSS
VL: DIQMTQSPSSLSASVGDRVTITCRASEDIYSNLAWYQQKPGKAPKLLIFDTNNLADGVPSRFSGSGSGTDFTLTISSLQPEDFATYYCQQYNNYPPTFGQGTKLEIKR
B16 showed an EC50 in assay [1] of 0.13 nM.

B17: h1A11.A11 (antibody, V domains shown)
VH: EVQLVESGGGLVQPGGSLRLSCAASGFTFRHFPMAWVRQAPGKGLEWVATISSSDDWPNYRDSVKGRFTISRDNAKSSLYLQMNSLRAEDTAVYYCSRGYYNSPFAYWGQGTLVTVSS
VL: DIQMTQSPSSLSASVGDRVTITCRASEDIYSNLAWYQQKPGKAPKLLIYDTNNLADGVPSRFSGSGSGTDFTLTISSLQPEDFATYYCQQYNNYPPTFGQGTKLEIK
In assay [2], B17 yielded a koff of 3.35e-05 s⁻¹ and an on-rate constant (kon) of 170000 M⁻¹ s⁻¹. In assay [3], the Kd turned out to be 0.2 nM.

B18: h1A11.A8 (antibody, V domains shown)
VH: EVQLVESGGGLVQPGGSLRLSCAASGFTFGNFPMSWVRQAPGKGLEWVASISSSDSWATIGDSVKGRFTISRDNAKNSLYLQMNSLRAEDTAVYYCSRGYYNSPFAYWGQGTLVTVSS
VL: DIQMTQSPSSLSASVGDRVTITCRASEDIYSNLAWYQQKPGKAPKLLIYDTNNLADGVPSRFSGSGSGTDFTLTISSLQPEDFATYYCQQYNNYPPTFGQGTKLEIK
In assay [2], B18 showed a koff of 2.4e-05 s⁻¹ and an association rate constant (kon) of 160000 M⁻¹ s⁻¹. This molecule also gave a dissociation constant Kd in assay [3] of 0.15 nM.

B19: h1A11.A6 (antibody, V domains shown)
VH: EVQLVESGGGLVQPGGSLRLSCAASGFTFRHFPMAWVRQAPGKGLEWVATISSSDAWPSYRDSVKGRFTISRDNAKNSLYLQMNSLRAEDTAVYYCSRGYYNSPFAYWGQGTLVTVSS
VL: DIQMTQSPSSLSASVGDRVTITCRASEDIYSNLAWYQQKPGKAPKLLIYDTNNLADGVPSRFSGSGSGTDFTLTISSLQPEDFATYYCQQYNNYPPTFGQGTKLEIK
In assay [2], B19 showed a koff of 2.1e-05 s⁻¹ and a kon of 171000 M⁻¹ s⁻¹. In addition, the dissociation constant (Kd) in assay [3] stood at 0.12 nM.

B20: h1A11.H2 (antibody, V domains shown)
VH: EVQLVESGGGLVQPGGSLRLSCAASGFTFGNFPMSWVRQAPGKGLEWVASISSSDSWATIGDSVKGRFTISRDNAKNSLYLQMNSLRAEDTAVYYCARGYYNSPFAFWGQGTLVTVSS
VL: DIQMTQSPSSLSASVGDRVTITCRASQEIYRNLAWYQQKPGKSPKLLIFDTSVLADGVPSRFSGSGSGTDSTLTISSLQPEDFATYYCQQYTYYPPTFGQGTKLEIK
With B20, in assay [2], the koff turned out to be 4.6e-05 s⁻¹ and the on-rate constant (kon) came to 131000 M⁻¹ s⁻¹. In assay [3], the dissociation constant (Kd) turned out to be 0.35 nM.
